US20200317768A1 (published 2020)

T1: cynomolgus monkey FcγRIIIaS extracellular domain with C-terminal His-tag (cynomolgus monkey, UniProt Q8SPW2 21-206 at identity 1.00))
T1 construct: also called cyno FcgRIIIaS; cynoFcγRIIIaS
T1 chain: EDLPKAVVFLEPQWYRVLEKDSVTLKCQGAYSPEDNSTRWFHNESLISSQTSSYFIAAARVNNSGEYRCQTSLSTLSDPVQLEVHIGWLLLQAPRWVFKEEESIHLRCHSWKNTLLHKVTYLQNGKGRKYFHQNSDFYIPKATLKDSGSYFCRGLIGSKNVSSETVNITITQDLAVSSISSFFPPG

T2: cynomolgus monkey FcγRIIa2 extracellular domain with C-terminal His-tag (cynomolgus monkey)
T2 construct: also called cyno FcgRIIa2; cynoFcγRIIa2
T2 chain: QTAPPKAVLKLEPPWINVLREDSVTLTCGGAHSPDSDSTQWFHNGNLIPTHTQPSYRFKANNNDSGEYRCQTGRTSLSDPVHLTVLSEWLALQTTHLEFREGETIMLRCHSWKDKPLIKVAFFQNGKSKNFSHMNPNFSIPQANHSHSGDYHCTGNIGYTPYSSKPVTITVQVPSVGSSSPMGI

T3: human FcγRIIb extracellular domain with C-terminal His-tag (human, UniProt P31994 43-217)
T3 construct: also called human FcgRIIb
T3 sequence: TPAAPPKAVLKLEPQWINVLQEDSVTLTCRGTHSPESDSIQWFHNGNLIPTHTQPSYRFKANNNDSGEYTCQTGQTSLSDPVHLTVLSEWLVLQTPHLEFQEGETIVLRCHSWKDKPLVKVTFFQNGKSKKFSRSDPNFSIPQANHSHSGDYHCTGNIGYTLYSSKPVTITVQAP

T4: cynomolgus monkey FcγRIIb extracellular domain with C-terminal His-tag (cynomolgus monkey)
T4 construct: also called cyno FcgRIIb; cynoFcγRIIb
T4 chain: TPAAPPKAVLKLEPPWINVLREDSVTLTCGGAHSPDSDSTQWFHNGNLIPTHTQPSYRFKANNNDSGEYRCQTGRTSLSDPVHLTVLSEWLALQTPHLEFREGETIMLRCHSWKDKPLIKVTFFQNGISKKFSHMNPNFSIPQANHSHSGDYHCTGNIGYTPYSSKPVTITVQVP

T5: human FcγRIIaH extracellular domain with C-terminal His-tag (human, UniProt P12318 34-217)
T5 construct: also called human FcgRIIaH; FcγRIIa (type H)
T5 sequence: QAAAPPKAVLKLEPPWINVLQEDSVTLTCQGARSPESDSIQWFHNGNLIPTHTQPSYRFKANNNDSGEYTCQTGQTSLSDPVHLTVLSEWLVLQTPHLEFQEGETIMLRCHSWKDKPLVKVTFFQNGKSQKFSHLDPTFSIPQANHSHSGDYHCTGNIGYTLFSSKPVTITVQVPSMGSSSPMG

T6: cynomolgus monkey FcγRIIa1 extracellular domain with C-terminal His-tag (cynomolgus monkey)
T6 construct: also called cyno FcgRIIa1; cynoFcγRIIa1
T6 chain: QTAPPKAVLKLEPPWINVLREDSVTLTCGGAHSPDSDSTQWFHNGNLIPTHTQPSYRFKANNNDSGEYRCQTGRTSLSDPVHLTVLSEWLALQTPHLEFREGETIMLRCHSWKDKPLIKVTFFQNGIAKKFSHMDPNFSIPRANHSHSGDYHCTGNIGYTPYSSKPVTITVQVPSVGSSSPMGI

T7: human FcγRIIaR extracellular domain with C-terminal His-tag (human, UniProt P12318 34-217)
T7 construct: also called human FcgRIIaR; FcγRIIa (type R)
T7 chain: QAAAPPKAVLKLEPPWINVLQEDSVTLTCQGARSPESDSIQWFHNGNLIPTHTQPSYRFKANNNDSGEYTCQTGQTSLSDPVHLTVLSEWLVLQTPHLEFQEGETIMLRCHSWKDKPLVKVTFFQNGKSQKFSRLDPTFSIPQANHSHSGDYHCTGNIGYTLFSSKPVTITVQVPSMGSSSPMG


Tests used:
[1] = biological target: T1, cynomolgus monkey FcγRIIIaS …; experiment: SPR (BIACORE), antibody captured, FcgR analyte
[2] = biological target: T2, cynomolgus monkey FcγRIIa2 …; experiment: SPR (BIACORE); KD of SG1 / KD of variant;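 further: relative to parent M103205H795-SG1 carrying the SG1 human heavy chain constant region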
[3] = biological target: T1, cynomolgus monkey FcγRIIIaS …; experiment: SPR (BIACORE); KD of SG1 / KD of variant;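 further: relative to parent M103205H795-SG1 carrying the SG1 human heavy chain constant region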
[4] = biological target: T8, human FcγRIIIaV extracellular domain with C-terminal His-tag (human, UniProt P08637 17-208); experiment: SPR (BIACORE); KD of SG1 / KD of variant;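 further: relative to parent M103205H795-SG1 carrying the SG1 human heavy chain constant region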
T8 construct: also called human FcgRIIIaV

[5] = biological target: T3, human FcγRIIb extracellular domain with …; experiment: SPR (BIACORE); KD of SG1 / KD of variant;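 further: relative to parent M103205H795-SG1 carrying the SG1 human heavy chain constant region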
[6] = biological target: T4, cynomolgus monkey FcγRIIb extracellular …; experiment: SPR (BIACORE); KD of SG1 / KD of variant
[7] = biological target: T5, human FcγRIIaH extracellular domain …; experiment: SPR (BIACORE); KD of SG1 / KD of variant
[8] = biological target: T6, cynomolgus monkey FcγRIIa1 …; experiment: SPR (BIACORE); KD of SG1 / KD of variant
[9] = biological target: T7, human FcγRIIaR extracellular domain …; experiment: SPR (BIACORE); KD of SG1 / KD of variant

T8 sequence (P08637 17-208 F176V): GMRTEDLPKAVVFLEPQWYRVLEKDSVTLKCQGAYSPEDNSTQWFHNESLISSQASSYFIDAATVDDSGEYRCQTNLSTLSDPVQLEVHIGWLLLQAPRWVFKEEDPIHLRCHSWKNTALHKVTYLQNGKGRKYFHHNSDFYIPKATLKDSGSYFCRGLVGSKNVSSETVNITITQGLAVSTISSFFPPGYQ

Row | Binder | Kd [1] [nM] | KD fold (SG1 = 1) [2] [fold] | KD fold (SG1 = 1) [3] [fold] | KD fold (SG1 = 1) [4] [fold] | KD fold (SG1 = 1) [5] [fold] | KD fold (SG1 = 1) [6] [fold] | KD fold (SG1 = 1) [7] [fold] | KD fold (SG1 = 1) [8] [fold] | KD fold (SG1 = 1) [9] [fold]
1 | M103205H795-MY340/M103202L889-SK1 (antibody, human IgG1, kappa, Substitutions introduced into M103205H795-SG1, expressed with M103202L889-SK1 as light chain; EU numbering) heavy: QVTLKESGPVLVKPTETLTLTCTVSGIDLSHDDISWVRQAPGKGLEWVGIISYAGSTYYASWAKGRLTISKDTSKNQVVLTMTNMDPVDTATYYCARGVPAYSHGGDLWGQGTLVTVSSASTKGPSVFPLAPSSKSTSGGTAALGCLVKDYFPEPVTVSWNSGALTSGVHTFPAVLQSSGLYSLSSVVTVPSSSLGTQTYICNVNHKPSNTKVDKKVEPKSCDKTHTCPPCPAPELLLGPSVFLFPPKPKDTLMISRTPEVTCVVVDVSDEDPEVKFNWYVDGVEVHNAKTKPREELYNSTYRVVSVLTVLHQDWLNGKEYKCKVSNKALPKPIEKTISKAKGQPREPQVYTLPPSREEMTKNQVSLTCLVKGFYPSDIAVEWESNGQPENNYKTTPKVLDSDGSFFLYSKLTVDKSRWQQGNVFSCSVMHEALHNHYTQKSLSLSP light: DIVMTQSPATLSLSPGERATLSCTSSQSVYHANWLSWFQQKPGQPPKLLIYWASTLAYGVPSRFSGSGSGTDFTLTISSLQPEDAATYYCAGGYGGGRYAFGQGTKVEIKRTVAAPSVFIFPPSDEQLKSGTASVVCLLNNFYPREAKVQWKVDNALQSGNSQESVTEQDSKDSTYSLSSTLTLSKADYEKHKVYACEVTHQGLSSPVTKSFNRGEC | 2300 | 1 | 0.16 | 0.05 | 1.4 | 1.6 | 2.2 | 0.7 | 1.3
2 | M103205H795-MY341/M103202L889-SK1 (antibody, human IgG1, kappa, Substitutions introduced into M103205H795-SG1, expressed with M103202L889-SK1 as light chain; EU numbering) heavy: QVTLKESGPVLVKPTETLTLTCTVSGIDLSHDDISWVRQAPGKGLEWVGIISYAGSTYYASWAKGRLTISKDTSKNQVVLTMTNMDPVDTATYYCARGVPAYSHGGDLWGQGTLVTVSSASTKGPSVFPLAPSSKSTSGGTAALGCLVKDYFPEPVTVSWNSGALTSGVHTFPAVLQSSGLYSLSSVVTVPSSSLGTQTYICNVNHKPSNTKVDKKVEPKSCDKTHTCPPCPAPELLLGPSVFLFPPKPKDTLMISRTPEVTCVVVDVSDEDPEVKFNWYVDGVEVHNAKTKPREELYNSTYRVVSVLTVLHQDWLNGKEYKCKVSNTALPKPIEKTISKAKGQPREPQVYTLPPSREEMTKNQVSLTCLVKGFYPSDIAVEWESNGQPENNYKTTPKVLDSDGSFFLYSKLTVDKSRWQQGNVFSCSVMHEALHNHYTQKSLSLSP light: DIVMTQSPATLSLSPGERATLSCTSSQSVYHANWLSWFQQKPGQPPKLLIYWASTLAYGVPSRFSGSGSGTDFTLTISSLQPEDAATYYCAGGYGGGRYAFGQGTKVEIKRTVAAPSVFIFPPSDEQLKSGTASVVCLLNNFYPREAKVQWKVDNALQSGNSQESVTEQDSKDSTYSLSSTLTLSKADYEKHKVYACEVTHQGLSSPVTKSFNRGEC | 340 | 1.8 | 0.38 | 0.12 | 2.6 | 3 | 2.7 | 1.2 | 2.6
3 | M103205H795-MY342/M103202L889-SK1 (antibody, human IgG1, kappa, Substitutions introduced into M103205H795-SG1, expressed with M103202L889-SK1 as light chain; EU numbering) heavy: QVTLKESGPVLVKPTETLTLTCTVSGIDLSHDDISWVRQAPGKGLEWVGIISYAGSTYYASWAKGRLTISKDTSKNQVVLTMTNMDPVDTATYYCARGVPAYSHGGDLWGQGTLVTVSSASTKGPSVFPLAPSSKSTSGGTAALGCLVKDYFPEPVTVSWNSGALTSGVHTFPAVLQSSGLYSLSSVVTVPSSSLGTQTYICNVNHKPSNTKVDKKVEPKSCDKTHTCPPCPAPELLLGPSVFLFPPKPKDTLMISRTPEVTCVVVDVSDEDPEVKFNWYVDGVEVHNAKTKPREELYNSTYRVVSVLTVLHQDWLNGKEYKCKVSNKALPKPIEKTISKAKGQPREPQVYTLPPSREEMTKNQVSLTCLVKGFYPSDIAVEWESNGQPENNYKTTPMVLDSDGSFFLYSKLTVDKSRWQQGNVFSCSVMHEALHNHYTQKSLSLSP light: DIVMTQSPATLSLSPGERATLSCTSSQSVYHANWLSWFQQKPGQPPKLLIYWASTLAYGVPSRFSGSGSGTDFTLTISSLQPEDAATYYCAGGYGGGRYAFGQGTKVEIKRTVAAPSVFIFPPSDEQLKSGTASVVCLLNNFYPREAKVQWKVDNALQSGNSQESVTEQDSKDSTYSLSSTLTLSKADYEKHKVYACEVTHQGLSSPVTKSFNRGEC | 2600 | 0.6 | 0.14 | 0.03 | 1.2 | 1.4 | 1.9 | 0.6 | 1.1

Next, values leading:

Row | Kd [1] [nM] | KD fold (SG1 = 1) [2] [fold] | KD fold (SG1 = 1) [3] [fold] | KD fold (SG1 = 1) [4] [fold] | KD fold (SG1 = 1) [5] [fold] | KD fold (SG1 = 1) [6] [fold] | KD fold (SG1 = 1) [7] [fold] | KD fold (SG1 = 1) [8] [fold] | KD fold (SG1 = 1) [9] [fold] | Binder
4 | 2800 | 5.1 | 0.13 | 0.08 | 9.6 | 6.2 | 1.5 | 3.4 | 1.3 | M103205H795-MY380/M103202L889-SK1 (antibody, human IgG1, kappa, Substitutions introduced into M103205H795-SG1, expressed with M103202L889-SK1 as light chain; EU numbering) heavy: QVTLKESGPVLVKPTETLTLTCTVSGIDLSHDDISWVRQAPGKGLEWVGIISYAGSTYYASWAKGRLTISKDTSKNQVVLTMTNMDPVDTATYYCARGVPAYSHGGDLWGQGTLVTVSSASTKGPSVFPLAPSSKSTSGGTAALGCLVKDYFPEPVTVSWNSGALTSGVHTFPAVLQSSGLYSLSSVVTVPSSSLGTQTYICNVNHKPSNTKVDKKVEPKSCDKTHTCPPCPAPELLNGPSVFLFPPKPKDTLMISRTPEVTCVVVDVSEEDPEVKFNWYVDGVEVHNAKTKPREEQYNSTYRVVSVLTVLHQDWLNGKEYKCKVSNKALPKPIEKTISKAKGQPREPQVYTLPPSREEMTKNQVSLTCLVKGFYPSDIAVEWESNGQPENNYKTTPKVLDSDGSFFLYSKLTVDKSRWQQGNVFSCSVMHEALHNHYTQKSLSLSP light: DIVMTQSPATLSLSPGERATLSCTSSQSVYHANWLSWFQQKPGQPPKLLIYWASTLAYGVPSRFSGSGSGTDFTLTISSLQPEDAATYYCAGGYGGGRYAFGQGTKVEIKRTVAAPSVFIFPPSDEQLKSGTASVVCLLNNFYPREAKVQWKVDNALQSGNSQESVTEQDSKDSTYSLSSTLTLSKADYEKHKVYACEVTHQGLSSPVTKSFNRGEC
5 | 2500 | 0.9 | 0.14 | 0.03 | 1 | 1.1 | 0.9 | 0.6 | 0.6 | M103205H795-MY386/M103202L889-SK1 (antibody, human IgG1, kappa, Substitutions introduced into M103205H795-SG1, expressed with M103202L889-SK1 as light chain; EU numbering) heavy: QVTLKESGPVLVKPTETLTLTCTVSGIDLSHDDISWVRQAPGKGLEWVGIISYAGSTYYASWAKGRLTISKDTSKNQVVLTMTNMDPVDTATYYCARGVPAYSHGGDLWGQGTLVTVSSASTKGPSVFPLAPSSKSTSGGTAALGCLVKDYFPEPVTVSWNSGALTSGVHTFPAVLQSSGLYSLSSVVTVPSSSLGTQTYICNVNHKPSNTKVDKKVEPKSCDKTHTCPPCPAPELLLGPSVFLFPPKPKDTLMISRTPEVTCVVVDVSDEDPEVKFNWYVDGVEVHNAKTKPREELYNSTYRVVSVLTVLHQDWLNGKEYKCKVSNTALPKPIEKTISKAKGQPREPQVYTLPPSREEMTKNQVSLTCLVKGFYPSDIAVEWESNGQPENNYKTTPPVLDSDGSFFLYSKLTVDKSRWQQGNVFSCSVMHEALHNHYTQKSLSLSP light: DIVMTQSPATLSLSPGERATLSCTSSQSVYHANWLSWFQQKPGQPPKLLIYWASTLAYGVPSRFSGSGSGTDFTLTISSLQPEDAATYYCAGGYGGGRYAFGQGTKVEIKRTVAAPSVFIFPPSDEQLKSGTASVVCLLNNFYPREAKVQWKVDNALQSGNSQESVTEQDSKDSTYSLSSTLTLSKADYEKHKVYACEVTHQGLSSPVTKSFNRGEC
